What was measured:
[1] = target: high molecular weight binding protein (150K) in normal human serum (human); test: radiolabelled IGF-1 incubated with serum; area under the curves of the high and low molecular weight peaks
[2] = target: high molecular weight binding protein (150K) in normal rat serum (rat); test: as above

O-glycosylated IGF-1 (ligand)
percent bound to the large molecular weight form compared to the authentic IGF-1 [1]: 50 to 60%
percent bound to the large molecular weight form compared to the authentic IGF-1 [2]: 50 to 60%
